Assay results published in patent US9994886B2, “Modified Epstein-Barr virus DNA polymerase and methods for isothermal DNA amplification” (priority 2013, dated 2018).
Where a chain is given by its changes, count along the chain named. Names may count otherwise.

B1: C550: BALF5 with deletion of the carboxyl terminal 465 residues (protein)
chain: MASASLTMSGGLFYNPFLRPNKGLLKKPDKEYLRLIPKCFQTPGAAGVVDVRGPQPPLCFYQDSLTVVGGDEDGKGMWWRQRAQEGTARPEADTHGSPLDFHVYDILETVYTHEKCAVIPSDKQGYVVPCGIVIKLLGRRKADGASVCVNVFGQQAYFYASAPQGLDVEFAVLSALKASTFDRRTPCRVSVEKVTRRSIMGYGNHAGDYHKITLSHPNSVCHVATWLQDKHGCRIFEANVDATRRFVLDNDFVTFGWYSCRRAIPRLQHRDSYAELEYDCEVGDLSVRREDSSWPSYQALAFDIECLGEEGFPTATNEADLILQISCVLWSTGEEAGRYRRILLTLGTCEDIEGVEVYEFPSELDMLYAFFQLIRDLSVEIVTGYNVANFDWPYILDRARHIYSINPASLGKIRAGGVCEVRRPHDAGKGFLRANTKVRITGLIPIDMYAVCRDKLSLSDYKLDTVARHLLGAKKEDVHYKEIPRLFAAGPEGRRRLGMYCVQDSALVMDLLNHFVIHVEVAEIAKIAHIPCRRVLDDGQQIRVFSCLLAAAQKENF
B2: A107-550: BALF5 with internal deletion of residues 107-550 (protein)
chain: MASASLTMSGGLFYNPFLRPNKGLLKKPDKEYLRLIPKCFQTPGAAGVVDVRGPQPPLCFYQDSLTVVGGDEDGKGMWWRQRAQEGTARPEADTHGSPLDFHVYDILETVYTHILPMPSASDRDGYQGATVIQPLSGFYNSPVLVVDFASLYPSIIQAHNLCYSTMITPGEEHRLAGLRPGEDYESFRLTGGVYHFVKKHVHESFLASLLTSWLAKRKAIKKLLAACEDPRQRTILDKQQLAIKCTCNAVYGFTGVANGLFPCLSIAETVTLQGRTMLERAKAFVEALSPANLQALAPSPDAWAPLNPEGQLRVIYGDTDSLFIECRGFSESETLRFADALAAHTTRSLFVAPISLEAEKTFSCLMLITKKRYVGVLTDGKTLMKGVELVRKTACKFVQTRCRRVLDLVLADARVKEAASLLSHRPFQESFTQGLPVGFLPVIDILNQAYTDLREGRVPMGELCFSTELSRKLSAYKSTQMPHLAVYQKFVERNEELPQIHDRIQYVFVEPKGGVKGARKTEMAEDPAYAERHGVPVAVDHYFDKLLQGAANILQCLFDNNSGAALSVLQNFTARPPF
B3: ΔC903: BALF5 with deletion of the carboxyl-terminal 112 residues (protein)
chain: MASASLTMSGGLFYNPFLRPNKGLLKKPDKEYLRLIPKCFQTPGAAGVVDVRGPQPPLCFYQDSLTVVGGDEDGKGMWWRQRAQEGTARPEADTHGSPLDFHVYDILETVYTHEKCAVIPSDKQGYVVPCGIVIKLLGRRKADGASVCVNVFGQQAYFYASAPQGLDVEFAVLSALKASTFDRRTPCRVSVEKVTRRSIMGYGNHAGDYHKITLSHPNSVCHVATWLQDKHGCRIFEANVDATRRFVLDNDFVTFGWYSCRRAIPRLQHRDSYAELEYDCEVGDLSVRREDSSWPSYQALAFDIECLGEEGFPTATNEADLILQISCVLWSTGEEAGRYRRILLTLGTCEDIEGVEVYEFPSELDMLYAFFQLIRDLSVEIVTGYNVANFDWPYILDRARHIYSINPASLGKIRAGGVCEVRRPHDAGKGFLRANTKVRITGLIPIDMYAVCRDKLSLSDYKLDTVARHLLGAKKEDVHYKEIPRLFAAGPEGRRRLGMYCVQDSALVMDLLNHFVIHVEVAEIAKIAHIPCRRVLDDGQQIRVFSCLLAAAQKENFILPMPSASDRDGYQGATVIQPLSGFYNSPVLVVDFASLYPSIIQAHNLCYSTMITPGEEHRLAGLRPGEDYESFRLTGGVYHFVKKHVHESFLASLLTSWLAKRKAIKKLLAACEDPRQRTILDKQQLAIKCTCNAVYGFTGVANGLFPCLSIAETVTLQGRTMLERAKAFVEALSPANLQALAPSPDAWAPLNPEGQLRVIYGDTDSLFIECRGFSESETLRFADALAAHTTRSLFVAPISLEAEKTFSCLMLITKKRYVGVLTDGKTLMKGVELVRKTACKFVQTRCRRVLDLVLADARVKEAASLLSHRPFQESFTQGLPVGFLPVIDILNQAYTDLREGRVPMGELCFS
B4: WT (1-404): full-length 50-kDa BMRF1 processivity factor subunit of EBV DNA polymerase, SEQ ID NO. 9 (protein)
chain: METTQTLRFKTKALAVLSKCYDHAQTHLKGGVLQVNLLSVNYGGPRLAAVANAGTAGLISFEVSPDAVAEWQNHQSPEEAPAAVSFRNLAYGRTCVLGKELFGSAVEQASLQFYKRPQGGSRPEFVKLTMEYDDKVSKSHHTCALMPYMPPASDRLRNEQMIGQVLLMPKTASSLQKWARQQGSGGVKVTLNPDLYVTTYTSGEACLTLDYKPLSVGPYEAFTGPVAKAQDVGAVEAHVVCSVAADSLAAALSLCRIPAVSVPILRFYRSGIIAVVAGLLTSAGDLPLDLSVILFNHASEEAAASTASEPEDKSPRVQPLGTGLQQRPRHTVSPSPSPPPPPRTPTWESPARPETPSPAIPSHSSNTALERPLAVQLARKRTSSEARQKQKHPKKVKQAFNPLI
modifications: Epstein-Barr Virus
B5: C95E: BMRF1 comprising a C95E mutation, a monomeric form of BMRF1 (protein, UniProt P03191 1-404, looked up, variant C95E)
DNA polymerase processivity …: B4 chain with C95E
B6: N160: BALF5 with deletion of the amino-terminal 160 residues (protein)
chain: VEFAVLSALKASTFDRRTPCRVSVEKVTRRSIMGYGNHAGDYHKITLSHPNSVCHVATWLQDKHGCRIFEANVDATRRFVLDNDFVTFGWYSCRRAIPRLQHRDSYAELEYDCEVGDLSVRREDSSWPSYQALAFDIECLGEEGFPTATNEADLILQISCVLWSTGEEAGRYRRILLTLGTCEDIEGVEVYEFPSELDMLYAFFQLIRDLSVEIVTGYNVANFDWPYILDRARHIYSINPASLGKIRAGGVCEVRRPHDAGKGFLRANTKVRITGLIPIDMYAVCRDKLSLSDYKLDTVARHLLGAKKEDVHYKEIPRLFAAGPEGRRRLGMYCVQDSALVMDLLNHFVIHVEVAEIAKIAHIPCRRVLDDGQQIRVFSCLLAAAQKENFILPMPSASDRDGYQGATVIQPLSGFYNSPVLVVDFASLYPSIIQAHNLCYSTMITPGEEHRLAGLRPGEDYESFRLTGGVYHFVKKHVHESFLASLLTSWLAKRKAIKKLLAACEDPRQRTILDKQQLAIKCTCNAVYGFTGVANGLFPCLSIAETVTLQGRTMLERAKAFVEALSPANLQALAPSPDAWAPLNPEGQLRVIYGDTDSLFIECRGFSESETLRFADALAAHTTRSLFVAPISLEAEKTFSCLMLITKKRYVGVLTDGKTLMKGVELVRKTACKFVQTRCRRVLDLVLADARVKEAASLLSHRPFQESFTQGLPVGFLPVIDILNQAYTDLREGRVPMGELCFSTELSRKLSAYKSTQMPHLAVYQKFVERNEELPQIHDRIQYVFVEPKGGVKGARKTEMAEDPAYAERHGVPVAVDHYFDKLLQGAANILQCLFDNNSGAALSVLQNFTARPPF

Assays:
GST-BMRF1(1-303) = target: T1, GST-BMRF1(1-303) (Epstein-Barr virus, UniProt P03191); assay: Binding of radiolabeled BALF5-deletion polypeptides to GST-BMRF1(1-303); conditions: 100 mM ammonium sulfate; [35S]-methionine labeled in vitro translated polypeptides
T1 construct: A GST fusion with BMRF1 residues 1-303 was constructed and expressed in E. coli BL21*DE3; made in house; host or cells: E. coli BL21*DE3
T1 sequence (P03191 1-303): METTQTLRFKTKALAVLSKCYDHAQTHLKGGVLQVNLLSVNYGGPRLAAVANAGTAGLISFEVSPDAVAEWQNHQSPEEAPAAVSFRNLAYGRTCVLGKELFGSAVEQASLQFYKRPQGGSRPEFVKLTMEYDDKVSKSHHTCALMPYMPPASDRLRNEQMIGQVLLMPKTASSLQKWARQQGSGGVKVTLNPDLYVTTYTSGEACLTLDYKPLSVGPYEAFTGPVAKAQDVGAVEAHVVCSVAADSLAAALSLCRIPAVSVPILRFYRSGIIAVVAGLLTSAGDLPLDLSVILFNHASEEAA
Protocol: To determine if the extreme carboxyl terminus of the EBV BALF5 subunit is necessary for functional interaction with BMRF1, a series of deletions of the BALF5 open reading frame was constructed in the pYES-X2 vector and [^35S]-methionine labeled polypeptides were expressed by in vitro transcription-translation as described (Kiehl, A. and D. I. Dorsky, J Virol, 1995, 69(3): p. 1669-77). These radiolabeled BALF5-deletion polypeptides were then assayed for binding to GST-BMRF1(1-303) in 100 mM ammonium sulfate. In vitro translated BALF5 bound to GST-BMRF1(1-303) but not to GST alone.

[1] = DNA polymerase activity in vitro of BALF5 deletion polypeptides; type: biochemical; conditions: with or without BMRF1, high and low ionic strength
[2] = system: activated calf thymus (CT) DNA; assay: DNA polymerase elongation activity of purified BALF5 on activated calf thymus DNA; type: biochemical; conditions: BMRF1 at concentrations required for stimulation at high-salt
Protocol: When assayed in the presence of BMRF1, its activity on CT DNA at 100 mM ammonium sulfate was greater than 100-fold increased over its activity alone, in the absence of salt.

[3] = monomeric form of BMRF1; cited from earlier work

Row | Molecule | binding to GST-BMRF1(1-303) (GST-BMRF1(1-303)) | DNA polymerase activity in vitro [1] | effect on the low-salt activity of BALF5 [2] | EBVpol processivity [3]
1 | B1 | did not bind | catalytically inactive | – | –
2 | B2 | did not prevent binding | catalytically inactive | – | –
3 | B3 | binding was preserved | wild-type DNA polymerase activity | – | –
4 | B4 | – | – | did not appear to significantly decrease | –
5 | B5 | – | – | – | can still efficiently catalyze EBVpol processivity
6 | B6 | did not prevent binding | catalytically inactive | – | –
